# According to the supplement of paper PMC10065799, “High-throughput profiling of sequence recognition by tyrosine kinases and SH2 domains using bacterial peptide display” (eLife, 2023):
# What was measured:
# c-Src SH2 = assay: SH2 binding enrichment of the phosphorylated peptide, bacterial display (enrichment ratio); higher = better substrate or ligand; peptides without Tyr show the background
# Grb2 SH2 = Grb2 SH2 (UniProt P62993); assay: as above
# SHP2-C SH2 = assay: as above
# Fyn = Fyn (UniProt P06241); assay: phosphorylation enrichment, bacterial display (enrichment ratio); higher = better substrate or ligand; peptides without Tyr show the background
# Hck = Hck (UniProt P08631); assay: as above
# Hck, sequence (P08631 whole entry, looked up): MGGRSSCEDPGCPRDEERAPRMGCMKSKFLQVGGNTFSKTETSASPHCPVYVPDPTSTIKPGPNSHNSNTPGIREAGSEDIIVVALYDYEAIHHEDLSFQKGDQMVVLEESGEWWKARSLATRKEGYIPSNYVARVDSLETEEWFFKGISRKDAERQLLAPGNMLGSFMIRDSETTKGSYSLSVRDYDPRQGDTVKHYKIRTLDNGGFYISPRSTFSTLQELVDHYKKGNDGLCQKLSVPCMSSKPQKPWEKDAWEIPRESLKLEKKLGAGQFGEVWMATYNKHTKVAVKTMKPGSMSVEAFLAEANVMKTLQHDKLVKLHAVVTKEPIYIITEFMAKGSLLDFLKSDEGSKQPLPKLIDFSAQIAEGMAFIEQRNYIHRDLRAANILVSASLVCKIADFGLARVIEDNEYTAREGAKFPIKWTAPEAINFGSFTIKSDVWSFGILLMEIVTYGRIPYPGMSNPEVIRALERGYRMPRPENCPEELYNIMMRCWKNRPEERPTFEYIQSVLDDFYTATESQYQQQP
# Fer (mouse) = assay: as above
# c-Src = assay: as above
# MERTK = MERTK (UniProt Q12866); assay: as above
# MERTK, sequence (Q12866 whole entry, looked up): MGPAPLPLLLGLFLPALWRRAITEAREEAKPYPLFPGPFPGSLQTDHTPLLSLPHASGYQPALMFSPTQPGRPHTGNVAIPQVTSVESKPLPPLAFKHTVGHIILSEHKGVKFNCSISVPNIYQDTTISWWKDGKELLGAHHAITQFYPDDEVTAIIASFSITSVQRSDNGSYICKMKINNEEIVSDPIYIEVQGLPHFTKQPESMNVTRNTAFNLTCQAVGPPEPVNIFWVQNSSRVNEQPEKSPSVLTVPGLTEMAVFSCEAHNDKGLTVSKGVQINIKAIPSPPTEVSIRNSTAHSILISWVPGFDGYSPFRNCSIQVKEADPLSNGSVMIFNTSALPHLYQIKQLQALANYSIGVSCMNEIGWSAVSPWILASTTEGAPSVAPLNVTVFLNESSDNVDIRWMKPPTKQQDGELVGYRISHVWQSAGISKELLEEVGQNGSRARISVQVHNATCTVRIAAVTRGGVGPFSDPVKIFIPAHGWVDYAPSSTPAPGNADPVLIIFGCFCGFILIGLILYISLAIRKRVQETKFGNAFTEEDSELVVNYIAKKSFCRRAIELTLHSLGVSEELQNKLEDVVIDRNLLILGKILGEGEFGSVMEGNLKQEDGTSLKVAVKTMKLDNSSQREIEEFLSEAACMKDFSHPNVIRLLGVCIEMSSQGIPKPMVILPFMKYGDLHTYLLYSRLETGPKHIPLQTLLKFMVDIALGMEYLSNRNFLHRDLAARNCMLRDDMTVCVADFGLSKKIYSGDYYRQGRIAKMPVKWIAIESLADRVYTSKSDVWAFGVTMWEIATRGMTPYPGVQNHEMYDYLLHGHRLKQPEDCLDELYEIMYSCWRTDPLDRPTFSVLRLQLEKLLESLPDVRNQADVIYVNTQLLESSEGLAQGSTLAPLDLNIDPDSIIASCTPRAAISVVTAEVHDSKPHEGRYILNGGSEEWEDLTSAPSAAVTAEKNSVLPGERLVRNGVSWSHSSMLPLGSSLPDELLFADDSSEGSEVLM
# FGFR3 = FGFR3 (UniProt P22607); assay: as above
# Jak2 = Jak2 (UniProt O60674); assay: as above
# EPHB2 = EPHB2 (UniProt P29323); assay: as above
# EPHB2, sequence (P29323 whole entry, looked up): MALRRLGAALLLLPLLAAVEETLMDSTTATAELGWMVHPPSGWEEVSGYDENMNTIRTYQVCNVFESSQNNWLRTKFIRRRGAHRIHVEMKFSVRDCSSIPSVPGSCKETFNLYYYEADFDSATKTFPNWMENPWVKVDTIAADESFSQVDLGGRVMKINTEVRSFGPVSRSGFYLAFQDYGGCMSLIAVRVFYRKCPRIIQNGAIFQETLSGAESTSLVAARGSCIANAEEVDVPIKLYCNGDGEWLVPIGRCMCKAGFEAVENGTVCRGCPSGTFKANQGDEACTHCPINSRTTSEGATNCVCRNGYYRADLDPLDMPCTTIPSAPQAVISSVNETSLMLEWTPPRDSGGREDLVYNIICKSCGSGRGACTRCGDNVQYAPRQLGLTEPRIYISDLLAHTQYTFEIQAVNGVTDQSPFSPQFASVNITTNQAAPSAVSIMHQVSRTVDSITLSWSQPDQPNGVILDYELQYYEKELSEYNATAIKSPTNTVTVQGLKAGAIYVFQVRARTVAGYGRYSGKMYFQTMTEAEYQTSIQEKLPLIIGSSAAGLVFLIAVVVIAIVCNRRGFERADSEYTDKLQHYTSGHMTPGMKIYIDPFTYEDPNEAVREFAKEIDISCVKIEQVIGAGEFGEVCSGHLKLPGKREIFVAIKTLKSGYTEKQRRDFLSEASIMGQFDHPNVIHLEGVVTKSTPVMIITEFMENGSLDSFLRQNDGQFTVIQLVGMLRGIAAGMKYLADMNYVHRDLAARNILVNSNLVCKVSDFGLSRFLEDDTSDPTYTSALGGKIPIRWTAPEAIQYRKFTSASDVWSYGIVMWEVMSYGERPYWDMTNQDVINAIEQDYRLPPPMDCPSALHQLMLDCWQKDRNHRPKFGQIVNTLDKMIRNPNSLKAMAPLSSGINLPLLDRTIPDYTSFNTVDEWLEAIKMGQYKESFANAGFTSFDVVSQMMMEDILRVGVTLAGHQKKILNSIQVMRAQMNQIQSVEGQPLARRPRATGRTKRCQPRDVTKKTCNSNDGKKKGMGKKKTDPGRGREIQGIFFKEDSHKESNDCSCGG
# FGFR1 = FGFR1 (UniProt P11362); assay: as above
# FGFR1, sequence (P11362 whole entry, looked up): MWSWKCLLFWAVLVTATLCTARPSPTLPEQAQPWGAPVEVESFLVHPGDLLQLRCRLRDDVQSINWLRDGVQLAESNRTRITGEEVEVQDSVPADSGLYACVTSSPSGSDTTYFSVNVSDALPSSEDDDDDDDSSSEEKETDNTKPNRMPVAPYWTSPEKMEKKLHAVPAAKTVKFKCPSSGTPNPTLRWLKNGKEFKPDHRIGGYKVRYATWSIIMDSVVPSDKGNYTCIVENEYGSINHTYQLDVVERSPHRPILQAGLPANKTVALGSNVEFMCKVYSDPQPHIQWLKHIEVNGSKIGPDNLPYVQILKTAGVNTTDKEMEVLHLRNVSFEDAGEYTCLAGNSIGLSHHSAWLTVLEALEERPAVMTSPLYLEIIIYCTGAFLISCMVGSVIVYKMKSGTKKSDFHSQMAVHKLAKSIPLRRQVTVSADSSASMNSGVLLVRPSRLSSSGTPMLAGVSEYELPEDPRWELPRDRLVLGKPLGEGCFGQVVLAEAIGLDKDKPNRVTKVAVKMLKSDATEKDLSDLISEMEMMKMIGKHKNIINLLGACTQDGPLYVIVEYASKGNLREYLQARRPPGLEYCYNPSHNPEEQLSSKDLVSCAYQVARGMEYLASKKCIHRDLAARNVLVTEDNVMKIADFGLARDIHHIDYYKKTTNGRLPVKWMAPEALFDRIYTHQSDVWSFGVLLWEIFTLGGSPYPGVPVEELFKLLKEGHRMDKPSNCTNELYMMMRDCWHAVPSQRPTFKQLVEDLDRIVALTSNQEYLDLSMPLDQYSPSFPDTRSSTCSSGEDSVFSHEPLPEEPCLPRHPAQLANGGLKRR
# Fes = Fes (UniProt P07332); assay: as above
# AncSZ = assay: as above
# EPHB1 = EPHB1 (UniProt P54762); assay: as above
# EPHB1, sequence (P54762 whole entry, looked up): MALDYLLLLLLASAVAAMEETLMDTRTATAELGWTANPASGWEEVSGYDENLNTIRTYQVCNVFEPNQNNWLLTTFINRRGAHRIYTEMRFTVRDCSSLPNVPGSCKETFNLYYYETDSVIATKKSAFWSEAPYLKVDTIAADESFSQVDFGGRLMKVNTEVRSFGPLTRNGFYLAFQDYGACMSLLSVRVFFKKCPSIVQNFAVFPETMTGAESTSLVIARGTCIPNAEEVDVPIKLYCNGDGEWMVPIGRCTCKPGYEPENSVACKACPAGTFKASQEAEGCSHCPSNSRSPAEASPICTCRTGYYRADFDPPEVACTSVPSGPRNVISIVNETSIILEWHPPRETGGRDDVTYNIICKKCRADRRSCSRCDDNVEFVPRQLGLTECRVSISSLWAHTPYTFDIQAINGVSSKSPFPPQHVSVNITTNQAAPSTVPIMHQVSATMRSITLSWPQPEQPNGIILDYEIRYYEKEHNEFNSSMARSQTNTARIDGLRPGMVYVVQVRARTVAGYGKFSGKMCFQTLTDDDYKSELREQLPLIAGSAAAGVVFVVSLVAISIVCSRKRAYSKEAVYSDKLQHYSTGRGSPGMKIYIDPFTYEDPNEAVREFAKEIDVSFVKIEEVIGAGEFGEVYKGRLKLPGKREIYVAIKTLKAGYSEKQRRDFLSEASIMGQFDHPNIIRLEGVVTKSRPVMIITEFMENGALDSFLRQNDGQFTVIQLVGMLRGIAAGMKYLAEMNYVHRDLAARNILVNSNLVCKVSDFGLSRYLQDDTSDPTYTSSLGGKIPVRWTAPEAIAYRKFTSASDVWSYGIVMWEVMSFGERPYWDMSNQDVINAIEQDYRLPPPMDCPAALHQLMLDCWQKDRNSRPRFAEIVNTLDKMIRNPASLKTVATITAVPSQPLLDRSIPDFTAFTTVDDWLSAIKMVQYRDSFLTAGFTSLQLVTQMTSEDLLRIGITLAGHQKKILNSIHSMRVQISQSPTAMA
# c-Abl (mouse) = assay: as above
# 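Wherever SH2 binding enrichment of the phosphorylated peptide, bacterial display is given: peptide library displayed on the E. coli surface as eCPX fusions, selected cells deep-sequenced, score is each peptide's frequency after selection divided by its frequency in the input.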
# 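Wherever phosphorylation enrichment, bacterial display is given: 11-residue human phosphosite peptides and single-mutation variants displayed on the E. coli surface, counted by deep sequencing, each peptide's frequency after selection divided by its frequency in the unselected input library; frequency after pTyr selection over input frequency; kinase dosed for 20-30% of maximal phosphorylation in three min.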
# Grb2 SH2, sequence (P62993 whole entry, looked up): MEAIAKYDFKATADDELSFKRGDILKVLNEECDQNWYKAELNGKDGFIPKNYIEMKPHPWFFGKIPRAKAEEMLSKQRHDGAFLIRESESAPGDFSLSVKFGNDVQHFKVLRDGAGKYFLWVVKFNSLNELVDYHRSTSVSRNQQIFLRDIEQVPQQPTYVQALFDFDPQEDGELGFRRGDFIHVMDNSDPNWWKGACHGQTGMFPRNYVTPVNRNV
Sequence,SH2 binding enrichment (c-Src SH2),SH2 binding enrichment (Grb2 SH2),SH2 binding enrichment (SHP2-C SH2),phosphorylation enrichment (Fyn),phosphorylation enrichment (Hck),phosphorylation enrichment (Fer (mouse)),phosphorylation enrichment (c-Src),phosphorylation enrichment (MERTK),phosphorylation enrichment (FGFR3),phosphorylation enrichment (Jak2),phosphorylation enrichment (EPHB2),phosphorylation enrichment (FGFR1),phosphorylation enrichment (Fes),phosphorylation enrichment (AncSZ),phosphorylation enrichment (EPHB1),phosphorylation enrichment (c-Abl (mouse))
DPLLTYRFPPK [LMNA_Y481],0.542,0.921,0.911,0.502,0.43,0.292,0.635,0.434,0.446,0.515,0.349,0.452,0.513,0.597,0.422,0.578
DPYHVYIKNHV [KCNE3_Y95_R99H],0.939,0.804,0.779,0.981,0.705,0.45,2.34,0.399,0.533,0.798,0.459,0.447,0.826,0.845,0.467,0.685
DQNVEYKGTVS [FHL1_Y117_W122S],0.53,0.867,0.704,0.422,0.495,0.468,0.444,0.452,0.566,0.618,0.616,0.525,0.828,0.801,0.508,0.624
DRLASSLDKVR [KRT10_Y160_Y160S],0.422,0.974,0.846,0.423,0.308,0.412,0.333,0.331,0.415,0.473,0.364,0.35,0.663,0.438,0.34,0.468
DRLASYQDKVR [KRT12_Y139_L140Q],0.546,0.786,0.685,0.361,0.417,0.299,0.41,0.437,0.539,0.577,0.461,0.394,0.68,0.532,0.411,0.516
DRTGHYLCNAC [GATA1_Y223],0.503,0.792,0.595,0.389,0.489,0.408,0.469,0.499,0.449,0.885,0.676,0.349,0.769,0.691,0.389,0.575
DSDTDYGSGFP [RNASEH2A_Y206_L202S_YF],0.494,0.705,0.697,0.429,0.566,0.492,0.494,0.455,0.605,0.905,0.557,0.418,1.01,1.1,0.545,0.755
DSEIRYLSADS [TTF1_Y476],0.633,0.887,0.914,0.526,0.458,0.551,0.51,0.461,0.709,0.868,0.547,0.546,0.933,0.964,0.489,0.727
DSSIRYLQEIH [FGG_Y135_Y140H],0.499,0.705,0.667,0.388,0.356,0.33,0.347,0.369,0.509,0.561,0.402,0.384,0.667,0.597,0.378,0.524
DVFRQYASLRG [GANAB_Y379_T383R],1.57,0.842,31,0.393,0.404,0.295,0.399,0.384,0.41,0.504,0.435,0.453,0.625,0.482,0.329,0.459
DVLPEYKLQAP [KCNH2_Y388],0.508,1.02,0.625,0.53,0.519,0.427,0.405,0.432,0.728,0.659,0.557,0.48,0.861,0.911,0.548,0.693
EAGKVYLKAPM [CBFB_Y96],0.503,0.956,0.609,0.492,0.496,0.411,0.434,0.602,0.609,0.669,0.524,0.433,0.939,0.754,0.443,0.504
EAIMTYVSSFY [ACTN4_Y260_K255E],0.477,0.712,0.672,0.503,0.631,0.445,0.855,0.457,0.693,1.06,0.631,0.459,1.12,1.14,0.617,0.708
EALDFYGEVRI [PTEN_Y155_T160I],0.499,1.09,0.567,1.64,1.13,1.55,1.44,0.494,1.1,2.03,0.614,0.538,1.73,1.49,0.871,1.11
EEGNPSYSSAR [MCCC2_Y520_Y520S],0.517,0.825,0.647,0.497,0.585,0.513,0.542,0.501,0.554,0.776,0.539,0.529,1,0.962,0.514,1.25
EEQKKYFNAMK [SCN5A_Y1494_YF],0.421,0.901,0.847,0.489,0.459,0.341,0.479,0.428,0.656,0.672,0.474,0.421,0.866,0.882,0.459,0.616
